The values below come from the supplement of paper PMC7877785.

The data set can be described thus: self-splicing fitness, log relative to wild type (ln ratio); higher = more splicing; Tetrahymena group I intron in knt gene, E. coli kanamycin selection, DiMSum; sequences stand for … in CUCUCU…GGAGGGAAAAGUUAUCAGGCAUGCACCUGGUAGCUAGUCUUUAAACCAAUAGAUUGCAUCGGUUUAAAAGGCAAGACCGUCAAAUUGCGGGAAAGGGGUCAACAGCCGUUCAGUACCAAGUCUCAGGGGAAACUUUGAGAUGGCCUUGCAAAGGGUAUGGUAAUAAGCUGACGGACAUGGUCCUAACCACGCAGCCAAGUCCUAAGUCAACAGAUCUUCUGUUGAUAUGGAUGCAGUUCACAGACUAAAUGUCGGUCGGGGAAGAUGUAUUCUUCUCAUAAGAUAUAGUCGGACCUCUCCUUAAUGGGAGCUAGCGGAUGAAGUGAUGCAACACUGGAGCCGCUGGGAACUAAUUUGUAUGCGAAAGUAUAUUGAUUAGUUUUGGAGUACUCGUGGUCG
The procedure, abridged:
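Six replicate transformations of E. coli BL21(DE3) with a pET-22b(+) library were grown overnight at 37°C or 30°C. The library randomised all eight P1ex-region intron nucleotides, the intron lying in the knt kanamycin-resistance gene, and plates were LB agar with or without 25 μg/mL kanamycin plus 100 μg/mL carbenicillin, 50 μM IPTG and 0.2% rhamnose. Pooled colonies were amplicon-sequenced on an Illumina HiSeq 2500, and fitness is the DiMSum error-weighted combination of wild-type-normalised replicate fold changes, kanamycin versus none.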

± gives the uncertainty stated by the source.

Turning to GUAGAGCAAUAUUACGUCCC, the “self-splicing fitness (ln)” value is -1.01 ± 0.37 (30 °C) and 0.144 ± 0.41 (37 °C). Take CCCCAGCAAUAUUACGGGUA: the “self-splicing fitness (ln)” value by setting is: (30 °C) -2.89 ± 0.11; (37 °C) -1.25 ± 0.073.

As for AGUCAGCAAUAUUACGAGUA, the “self-splicing fitness (ln)” value reads like this: (30 °C) -2.3 ± 0.13; (37 °C) -1.31 ± 0.1. With GGUAAGCAAUAUUACGCGGA, the “self-splicing fitness (ln)” value (30 °C) is -0.857 ± 0.18 and the “self-splicing fitness (ln)” value (37 °C) is -2.25 ± 0.2. Take UCUGAGCAAUAUUACGAUCG: where the note is “37 °C”, the “self-splicing fitness (ln)” value is -0.514 ± 0.41.

Consider UUUUAGCAAUAUUACGGGAA, for which the “self-splicing fitness (ln)” value is -1.16 ± 0.16 (30 °C) and -1.19 ± 0.13 (37 °C). For CCACAGCAAUAUUACGUUAU the same measures were -4.08 ± 0.15 and -2.66 ± 0.16.

For GGUUAGCAAUAUUACGGUGU, the “self-splicing fitness (ln)” value is -2.18 ± 0.11 (30 °C) and -0.973 ± 0.15 (37 °C). As for CCCCAGCAAUAUUACGUUAU, the “self-splicing fitness (ln)” value is -4.15 ± 0.15 (30 °C) and -3.29 ± 0.22 (37 °C). Regarding UUGUAGCAAUAUUACGGCAA, the “self-splicing fitness (ln)” value runs as follows: (30 °C) -0.208 ± 0.12; (37 °C) -0.27 ± 0.16. On to CUUGAGCAAUAUUACGGAUA, for which the “self-splicing fitness (ln)” value by setting is: (30 °C) -3.62 ± 0.4; (37 °C) -1.76 ± 0.4. For GCUCAGCAAUAUUACGCGUC the same measures were -0.866 ± 0.1 and -0.379 ± 0.12. With UCUCAGCAAUAUUACGGUGA, the “self-splicing fitness (ln)” value was -1.8 ± 0.13 (30 °C) and -1.14 ± 0.12 (37 °C). On to CUUUAGCAAUAUUACGCAAC, for which, where the note is “30 °C”, the “self-splicing fitness (ln)” value was -1.73 ± 0.24.

For UUGGAGCAAUAUUACGGGUG, the “self-splicing fitness (ln)” value (37 °C) was -1.44 ± 0.23.

Turning to CCAUAGCAAUAUUACGAUUC, the “self-splicing fitness (ln)” value (30 °C) was -3.64 ± 0.25 and the “self-splicing fitness (ln)” value (37 °C) was -2.89 ± 0.41. As to CCUUAGCAAUAUUACGAUGA, the “self-splicing fitness (ln)” value by setting is: (30 °C) -3 ± 0.43; (37 °C) -1.71 ± 0.28. Consider AAUAAGCAAUAUUACGAACA, for which the “self-splicing fitness (ln)” value reads like this: (30 °C) -0.812 ± 0.15; (37 °C) -0.462 ± 0.15.

For the sequence UGGGAGCAAUAUUACGACAA, the “self-splicing fitness (ln)” value is -2.75 ± 0.34 (30 °C) and -0.982 ± 0.3 (37 °C). As to GCUAAGCAAUAUUACGGCCA, the “self-splicing fitness (ln)” value by setting is: (30 °C) -0.635 ± 0.2; (37 °C) -1.58 ± 0.2.

Take AGUUAGCAAUAUUACGGAUU: the “self-splicing fitness (ln)” value by setting is: (30 °C) -1.32 ± 0.14; (37 °C) -0.035 ± 0.16.

Turning to UUCAAGCAAUAUUACGCAGA, the “self-splicing fitness (ln)” value is -3.11 ± 0.35 (30 °C) and -1.91 ± 0.2 (37 °C).

Regarding GUUCAGCAAUAUUACGCCUU, the “self-splicing fitness (ln)” value by setting is: (30 °C) -0.418 ± 0.083; (37 °C) 0.046 ± 0.082. As for UUCAAGCAAUAUUACGGCUA, the “self-splicing fitness (ln)” value is -0.138 ± 0.094 (30 °C) and -0.12 ± 0.087 (37 °C). Taken in the same sequence, the figures for AAGCAGCAAUAUUACGAUAC were -2.7 ± 0.14 and -1.7 ± 0.18. Taken in the same sequence, the figures for UGCCAGCAAUAUUACGAUCC were -3.25 ± 0.29 and -1.11 ± 0.42. For CGUAAGCAAUAUUACGACAG the same measures were -0.247 ± 0.11 and -0.867 ± 0.14. Take AAAAAGCAAUAUUACGUCGA: the “self-splicing fitness (ln)” value is -1.05 ± 0.067 (30 °C) and -0.415 ± 0.082 (37 °C). With AACCAGCAAUAUUACGUCAA, the “self-splicing fitness (ln)” value is -1.38 ± 0.062 (30 °C) and -1.06 ± 0.074 (37 °C). For ACUCAGCAAUAUUACGACGC the same measures were -0.134 ± 0.074 and 0.447 ± 0.088. Taken in the same sequence, the figures for AGUGAGCAAUAUUACGUUUA were -3.37 ± 0.45 and -2.04 ± 0.22.

In the case of AAAUAGCAAUAUUACGAACU, the “self-splicing fitness (ln)” value (30 °C) was 1.11 ± 0.17 and the “self-splicing fitness (ln)” value (37 °C) was -0.182 ± 0.16. As for AUUUAGCAAUAUUACGGACC, the “self-splicing fitness (ln)” value was -1.57 ± 0.2 (30 °C) and -1.29 ± 0.27 (37 °C). In the case of GGCUAGCAAUAUUACGACAU, the “self-splicing fitness (ln)” value is -0.413 ± 0.013 (30 °C) and 0.0789 ± 0.033 (37 °C). On to AUCCAGCAAUAUUACGUCCC, for which the “self-splicing fitness (ln)” value was -0.894 ± 0.22 (30 °C) and -1.1 ± 0.28 (37 °C). Regarding CGCCAGCAAUAUUACGAUCC, for the setting “30 °C”, the “self-splicing fitness (ln)” value was -3.12 ± 0.37. Turning to CUGUAGCAAUAUUACGGAGC, the “self-splicing fitness (ln)” value (37 °C) was -2.55 ± 0.49.

Turning to GCCAAGCAAUAUUACGGUAA, the “self-splicing fitness (ln)” value by setting is: (30 °C) -0.713 ± 0.1; (37 °C) 0.0284 ± 0.1.

Take CCUUAGCAAUAUUACGCGGG: the “self-splicing fitness (ln)” value is -3.22 ± 0.16 (30 °C) and -2.21 ± 0.2 (37 °C).
